Experimental data reported in PMC2632936 (Journal of molecular biology, 2008).

Experiments:
[1] = target: Vps4_(ΔMIT, E233Q) (solution experiments) (S. cerevisiae) (UniProt P52917); experiment: AUC
AUC = target: the molecule itself; experiment: AUC

Row | stoichiometry N [1] | Molecule | Kd (AUC) [µM] | stoichiometry N (AUC)
1 | 2.19 | Vps4_(ΔMIT, E233Q) (solution experiments) (from UniProt P52917 104-437) (domain or fragment) |  | 
2 |  | full length Vps4_(E233Q) (S. cerevisiae) (enzyme, UniProt P52917 1-437, looked up) MSTGDFLTKGIELVQKAIDLDTATQYEEAYTAYYNGLDYLMLALKYEKNPKSKDLIRAKFTEYLNRAEQLKKHLESEEANAAKKSPSAGSGSNGGNKKISQEEGEDNGGEDNKKLRGALSSAILSEKPNVKWEDVAGLEGAKEALKEAVILPVKFPHLFKGNRKPTSGILLYGPPGTGKSYLAKAVATEANSTFFSVSSSDLVSKWMGESEKLVKQLFAMARENKPSIIFIDQVDALTGTRGEGESEASRRIKTELLVQMNGVGNDSQGVLVLGATNIPWQLDSAIRRRFERRIYIPLPDLAARTTMFEINVGDTPCVLTKEDYRTLGAMTEGYSGSDIAVVVKDALMQPIRKIQSATHFKDVSTEDDETRKLTPCSPGDDGAIEMSWTDIEADELKEPDLTIKDFLKAIKSTRPTVNEDDLLKQEQFTRDFGQEGN | < 5 | 1.97
